Data: patent publication US20240239875A1 (published 2024)
Where a chain is given by its changes, count along the chain named.

T1: HKU1 spike protein (HCoV-HKU1)
T1 chain: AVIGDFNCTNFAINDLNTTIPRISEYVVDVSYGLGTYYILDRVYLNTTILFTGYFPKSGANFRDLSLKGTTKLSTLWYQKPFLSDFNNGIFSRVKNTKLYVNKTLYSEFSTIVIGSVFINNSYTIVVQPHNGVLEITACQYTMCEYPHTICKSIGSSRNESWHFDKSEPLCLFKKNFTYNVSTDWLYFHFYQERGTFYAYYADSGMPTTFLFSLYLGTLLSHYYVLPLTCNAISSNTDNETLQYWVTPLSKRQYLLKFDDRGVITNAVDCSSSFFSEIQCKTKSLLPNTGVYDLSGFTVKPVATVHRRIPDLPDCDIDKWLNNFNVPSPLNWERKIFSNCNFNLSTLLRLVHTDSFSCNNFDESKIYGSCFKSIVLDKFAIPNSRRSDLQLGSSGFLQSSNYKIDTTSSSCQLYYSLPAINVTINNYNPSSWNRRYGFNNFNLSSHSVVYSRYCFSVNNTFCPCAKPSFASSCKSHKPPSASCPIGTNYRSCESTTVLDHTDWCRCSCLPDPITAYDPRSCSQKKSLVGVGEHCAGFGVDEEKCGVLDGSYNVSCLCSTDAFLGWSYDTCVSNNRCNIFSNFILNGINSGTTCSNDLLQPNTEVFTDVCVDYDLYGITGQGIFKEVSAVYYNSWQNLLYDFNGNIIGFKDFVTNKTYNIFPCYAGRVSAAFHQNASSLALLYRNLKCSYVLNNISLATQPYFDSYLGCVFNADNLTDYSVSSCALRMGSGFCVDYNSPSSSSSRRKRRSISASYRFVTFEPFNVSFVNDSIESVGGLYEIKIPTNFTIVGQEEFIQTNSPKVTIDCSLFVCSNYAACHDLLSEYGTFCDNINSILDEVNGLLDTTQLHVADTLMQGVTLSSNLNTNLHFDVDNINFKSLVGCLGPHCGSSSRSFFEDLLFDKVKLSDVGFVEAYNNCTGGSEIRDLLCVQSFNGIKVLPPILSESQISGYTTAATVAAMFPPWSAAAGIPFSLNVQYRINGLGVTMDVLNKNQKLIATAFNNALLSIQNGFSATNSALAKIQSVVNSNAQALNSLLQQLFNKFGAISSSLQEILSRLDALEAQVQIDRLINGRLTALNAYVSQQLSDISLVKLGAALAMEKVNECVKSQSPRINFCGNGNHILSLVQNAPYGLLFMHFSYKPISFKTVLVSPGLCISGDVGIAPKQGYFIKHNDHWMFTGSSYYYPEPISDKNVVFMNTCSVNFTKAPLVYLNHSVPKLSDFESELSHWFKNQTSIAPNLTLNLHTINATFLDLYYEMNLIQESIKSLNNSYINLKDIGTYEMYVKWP

T2: HCoV-OC43 spike protein (HCoV-OC43)
T2 chain: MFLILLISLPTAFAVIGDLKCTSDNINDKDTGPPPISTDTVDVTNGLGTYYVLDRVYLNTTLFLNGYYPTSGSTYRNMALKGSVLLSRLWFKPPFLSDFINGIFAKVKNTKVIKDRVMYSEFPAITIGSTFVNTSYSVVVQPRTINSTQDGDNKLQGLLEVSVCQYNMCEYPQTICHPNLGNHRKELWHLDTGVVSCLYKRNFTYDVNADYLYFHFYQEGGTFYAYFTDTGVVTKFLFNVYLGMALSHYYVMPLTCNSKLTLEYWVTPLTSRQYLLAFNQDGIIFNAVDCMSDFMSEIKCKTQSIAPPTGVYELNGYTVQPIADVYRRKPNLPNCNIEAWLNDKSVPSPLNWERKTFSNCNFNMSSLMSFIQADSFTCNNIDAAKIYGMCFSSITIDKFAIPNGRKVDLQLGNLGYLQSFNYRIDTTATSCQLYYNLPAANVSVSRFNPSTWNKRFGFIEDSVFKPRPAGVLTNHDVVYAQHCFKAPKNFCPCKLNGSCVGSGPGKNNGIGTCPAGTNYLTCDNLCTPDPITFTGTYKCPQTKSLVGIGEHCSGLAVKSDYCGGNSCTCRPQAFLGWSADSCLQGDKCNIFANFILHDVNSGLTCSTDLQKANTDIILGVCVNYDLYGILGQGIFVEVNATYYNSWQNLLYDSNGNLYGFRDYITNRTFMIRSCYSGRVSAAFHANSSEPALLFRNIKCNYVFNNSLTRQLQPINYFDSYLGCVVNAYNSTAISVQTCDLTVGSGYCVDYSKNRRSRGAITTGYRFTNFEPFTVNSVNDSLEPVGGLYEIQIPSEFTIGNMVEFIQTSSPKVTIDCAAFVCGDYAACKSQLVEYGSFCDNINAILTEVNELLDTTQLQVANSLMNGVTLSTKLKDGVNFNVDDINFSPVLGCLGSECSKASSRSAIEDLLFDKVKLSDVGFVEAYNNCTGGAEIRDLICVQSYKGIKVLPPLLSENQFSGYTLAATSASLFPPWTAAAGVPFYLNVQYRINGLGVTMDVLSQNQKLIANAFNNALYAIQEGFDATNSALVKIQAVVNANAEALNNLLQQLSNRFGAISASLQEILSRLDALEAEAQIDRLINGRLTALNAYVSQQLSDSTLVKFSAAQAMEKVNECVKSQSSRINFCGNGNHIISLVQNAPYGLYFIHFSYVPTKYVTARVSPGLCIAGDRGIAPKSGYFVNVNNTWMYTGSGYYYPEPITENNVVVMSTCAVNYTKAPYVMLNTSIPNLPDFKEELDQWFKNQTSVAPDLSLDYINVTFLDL

B1: 6-O12-A (antibody, V domains shown)
VH: QVQLQQPGTELVKPGASVKLSCKASGYTFTSYWMHWVKQRPGQGLEWIGNINPSNGGTNYNEKFRSKATLTVDKSSSTAYMQLSSLTSEDSAVYYCARLGWFLPLGSWGQGTTLTVSS
VL: QIVLTQSPAIMSASLGEVITLTCSASSSVSYMHWYQQKSGTSPKLLIYSTSNLASGVPSRFSGSGSGTFYSLTISSVEAEDAADYYCHQWSGYMYTFGGGTKLEIK
B2: 7-D7-A (antibody, V domains shown)
VH: QVQLKESGPGLVAPSQSLSITCTVSGFSLTSYAISWVRQPPGKGLEWLGVIWPGGGTNYNSALKSRLSISKDNSKSQVFLKMNSLQTDDTAKYYCARTGYYFDYWGQGTTLTVSS
VL: QLILTQSPAIMSASPGEKVTMTCSASLSVNYMYWFQQKPGTSPKRWIHDTSKLASGVPARFSGSGSGTSYSLTISSMEAEDAATYYCQQWSSNPPMYTFGGGTKLEIK
B3: 8-A17-A (antibody, V domains shown)
VH: B2 VH with I51V, S70N, A91G, K92R, Y101H
VL: B2 VL with L2I, I3V, A25V, L27S, N30S, Y33H, F35Y, P39S, H48Y
B4: 1-L10-A (antibody, V domains shown)
VH: EVKLEESGGGLVQPGGSMKLSCVASGFTFNNYWMNWVRQSPEKGLEWVAQMRLKSDNYATHYAESVKGRFTISRDDSKSSVYLQMNNLRAEDTGIYYCIEGYWTYWGQGTLVTVSA
VL: QIVLTQSPAIMSASLGERVTMTCTASSSVSSSYLHWYQQKPGSSPKLWIYSTSNLASGVPARFSGNGSGTSYSLTISSMEAEDAATYYCLQYHRSPPYTFGGGTKLEIK
B5: 2-G20-A (antibody, V domains shown)
VH: EVQLQQSGPELVKPGASVKMSCKASGYTFPSYVLHWVKQKPGQGLEWIGYIYPYNDGTNYNEKFKGKATLTSDKSSSTAYMELSSLTSEDSAVYYCARGDYGDSAWFPYWGQGTLVTVSA
VL: DIVLTQSPASLAVSLGQRATISCRASKSVSTSGYSYMHWYQQKPGQPPKLLIYLASNLKSGVPARFSGGGSGTDFTLNIHPVEEEDAATYYCQLSRELPWTFGGGTKLEIK
B6: 9-F6-A (antibody, V domains shown)
VH: EVQLQQSGPELVKPGASVKMSCKASGYTFTSYIMHWVKQKPGQGLEWIGYILPYNDGTKYNEKFKGKATLTSDKSSSTAYMELRSLTSEDSAVYYCARWGYSNFLDSWGQGTTLTVSS
VL: DIQMTQTTSSLSASLGDRVTISCRASQDINNYLNWYQQKPDGTVKLLIYYTSRLHSGVPSRFSGSGSGTDYSLTIRNLEQEDIATYFCQQGNTLPPTFGGGTKLEIK
B7: 1-B11-A (antibody, V domains shown)
VH: QVQLQQSGPELVKPGASVKISCKASGYTFTDHYINWVKQRPGQGLEWIGWIFPGSGSTYYNEQFKGKATLTVDKSSNTAYMLLSSLTSEDSAVYFCARSGGLRLGFAYWGQGTLVTVSA
VL: B6 VL with N30S, R76S, A84S, G91V, P96Y

Molecular target: T1, HKU1 spike protein
Test: ELISA

**Q.** With B1 as the binder, how does the EC50 read?
**A.** 0.41 nM

**Q.** With B2 as the binder, how does the EC50 read?
**A.** 1.3 nM

**Q.** With B3 as the binder, how does the EC50 read?
**A.** 0.37 nM

**Q.** For B4, which EC50 is on record?
**A.** 2.73 nM

**Q.** With B5 as the binder, how does the EC50 read?
**A.** 1.39 nM

**Q.** Which EC50 does the source give for B6 here?
**A.** 0.61 nM

**Q.** Which EC50 does the source give for B7 here?
**A.** 0.82 nM

Molecular target: T2, HCoV-OC43 spike protein
Test: ELISA

**Q.** How did the EC50 turn out when B1 was run?
**A.** 0.23 nM

**Q.** Which EC50 does the source give for B2 here?
**A.** 0.23 nM

**Q.** For B3, which EC50 is on record?
**A.** 0.05 nM

**Q.** For B4, which EC50 is on record?
**A.** 0.77 nM

**Q.** B5 was tested. Which EC50 did it give?
**A.** 0.28 nM

**Q.** B6 was tested. Which EC50 did it give?
**A.** 0.05 nM

**Q.** How did the EC50 turn out when B7 was run?
**A.** 0.57 nM
